Experimental data from patent publication US20200086139A1, “COMBINATION THERAPY FOR THE TREATMENT OF GLIOBLASTOMA” (Genentech, Inc., priority 2012, published 2020).

Columns and labels:
[1] = tested on: newly diagnosed glioblastoma; experiment: AVAglio Phase III trial, efficacy (PFS, ORR, pseudoprogression, steroid discontinuation); assay type: in vivo, human
Excerpt: (§1) A randomized, double blind, placebo controlled multicenter Phase III trial of bevacizumab, temozolomide and radiotherapy, followed by bevacizumab and temozolomide versus placebo, temozolomide and radiotherapy followed by placebo and temozolomide in patients with newly diagnosed glioblastoma (AVAglio)
(§2) The AVAglio trial evaluated the efficacy and safety of bevacizumab in combination temozolomide and radiotherapy for newly diagnosed glioblastoma. This study was designed as a prospective, randomized, double blind, placebo controlled Phase III evaluation of bevacizumab plus chemotherapy versus chemotherapy alone. To be eligible, patients must have newly diagnosed glioblastoma with a tissue diagnosis that has been established following either a surgical resection or biopsy. By adding bevacizumab to chemotherapy and radiotherapy, the AVAglio trial aimed to improve overall survival (OS) and progression-free survival (PFS) for this group of patients who have limited therapeutic options and face a particularly poor prognosis. The primary objective was to compare OS and PFS of patients randomised to temozolomide and radiotherapy only or to temozolomide and radiotherapy plus bevacizumab.
(§3) Study Design—This trial consisted of three phases (Concurrent, Maintenance, and Monotherapy) and two (2) treatment arms: temozolomide and radiotherapy (Arm 1) and temozolomide and radiotherapy plus bevacizumab (Arm 2). Patients were randomly assigned (1:1) to either arm, see FIG. 1.
(§4) Eligible patients received 2 Gy radiotherapy 5 days a week for 6 weeks and 75 mg/m^2 temozolomide (TMZ) orally daily for 6 weeks from the first day to the last day of radiotherapy. After a 4 week treatment break, eligible patients received 6 cycles of 150-200 mg/m^2 TMZ on days 1-5 of a every 4 weeks schedule in combination with 10 mg/kg placebo IV every 2 weeks. TMZ was administered orally starting with a 150 mg/m^2 dose that could be escalated. Placebo monotherapy (15 mg/kg every 3 weeks) was then continued until disease progression.
as §4, with “TMZ” for “temozolomide (TMZ)”, “radiotherapy in combination with 10 mg/kg bevacizumab IV every 2 weeks.” for “radiotherapy.”, “bevacizumab” for “placebo”, “Bevacizumab” for “Placebo”
(§5) The initial bevacizumab infusion was over 90 minutes, with subsequent infusions over 60 minutes and then 30 minutes, as tolerated. Bevacizumab was administered on the day of the last day of radiotherapy and TMZ, i.e., the day before the start of the TMZ treatment break.
Analyses of PFS was based on tumor assessments MacDonald Response Criteria (modified WHO criteria) using MRI of the brain and a neurological evaluation as described in Macdonald et al., Response criteria for phase II studies of supratentorial malignant glioma. J Clin Oncol 1990; 8:1277-80.
Tumor assessments were performed at baseline, at the end of the 4 week treatment break, then then every 8 weeks.
Patients≥18 years of age and with newly diagnosed supratentorial Glioblastoma (GBM) with a tissue diagnosis that has been established following either a surgical resection or biopsy. This includes treatment-naïve—(chemotherapy and radiotherapy)—patients with prior diagnosis of a lower grade astrocytoma that has been upgraded to a histologically verified GBM. Patients must have WHO performance status≤2.
Eligible patients had newly diagnosed glioblastoma (WHO performance status≤2). […]

[2] = AVAglio Phase III trial, safety (adverse events); assay type: in vivo, human; parameters: unit not given here
Excerpt: as §1, §2, §3, §4
as §4, with “TMZ” for “temozolomide (TMZ)”, “radiotherapy in combination with 10 mg/kg bevacizumab IV every 2 weeks.” for “radiotherapy.”, “bevacizumab” for “placebo”, “Bevacizumab” for “Placebo”
as §5
Patients≥18 years of age and with newly diagnosed supratentorial Glioblastoma (GBM) with a tissue diagnosis that has been established following either a surgical resection or biopsy. […] Patients must have WHO performance status≤2.
Eligible patients had newly diagnosed glioblastoma (WHO performance status≤2). After surgical resection, patients were randomized to concurrent therapy with temozolomide with radiation and placebo or temozolomide with radiation and bevacizumab followed by a 28 day treatment break, maintenance therapy with 10 mg/kg bevacizumab or placebo administered every two weeks in combination with temozolomide, and monotherapy with 15 mg/kg bevacizumab or placebo was administered every three weeks until disease progression or unacceptable toxicity. Patients in the placebo arm were treated at the investigators discretion at progression.

## bevacizumab + RT + T: Arm 2 of AVAglio: bevacizumab (recombinant humanized anti-VEGF monoclonal antibody) with temozolomide and radiotherapy
[1]; Bv + T/RT versus P + T/RT, p =< 0.001
  Best ORR: Difference, % (95% CI): 20.4 (13.9-26.8) %
[1]; PFS events, percent of patients
  Events, %: 77.3%
[1]; PFS hazard ratio, bevacizumab + RT + T versus placebo + RT + T, log-rank p < 0.0001
  HR (95% CI): 0.64 (0.55-0.74)
[1]; addition to first line temozolomide plus radiotherapy
  effect on ORR (in words): significantly improves ORR
[1]; end of treatment break
  Potential PsPD, %: 2.6%
[1]; median progression-free survival, MacDonald Response Criteria, patients with newly diagnosed glioblastoma
  PFS (months): 10.6 months
[1]; objective response rate
  Best ORR: % (95% CI): 38.4 (33.5-43.5) %
[1]; patients on steroids at baseline
  patients on steroids at baseline able to discontinue steroids for part of their progression-free survival interval: 66%
[1]; post-2nd maintenance cycle
  Confirmed PsPD, %: 2.2%
  Rejected PsPD, %: 0.2%
[1]; versus chemotherapy in combination with radiotherapy
  improvement in PFS (in words): statistically significant and clinically meaningful improvement in PFS
[2]
  Thromboembolic event Arterial (all grade): 5
  Thromboembolic event Venous (Grade ≥3): 7.3
[2]; adverse event
  CHF (grade ≥3): 0.4
  Fistula/abscess (all grade): 0.6
  Hypertension (Grade ≥3): 10.3
  PRES (Posterior reversible encephalopathy syndrome) (all grade): 0
  Proteinuria (Grade ≥3): 3.7
[2]; adverse event, Grade ≥3
  Bleeding (Grade ≥3) Cerebral Hemorrhage: 1.5
  Bleeding (Grade ≥3) Mucocutaneous bleeding: 0.4
  Bleeding (Grade ≥3) Other: 0.6
[2]; adverse event, all grade
  Bleeding (all grade) Cerebral Hemorrhage: 2.6
  Bleeding (all grade) Mucocutaneous bleeding: 26.7
  Bleeding (all grade) Other: 11.6
